B1: Flag and GFP-fused PKN3 WT (mouse) [mouse] / p130Cas, endogenous in MDA-MB-231 cells [human (endogenous in MDA-MB-231)] (parent complex)
chain 1: MEHRKPGTGQRAPKDEKEMVRRAIQKELKIKEGMENMRRVATDRRHLGHVQQLLRASNRRLEQLHGELRELHAQVLLPASAEPVTSEPQPRAEQSRARLSEALHRQLQVELKVKQGAENMIHTCASGTPKERKLLAAAQQMLKDSQLKVALLRMKISSLESSGSPEPGPDLLAEELQHRLRVEAAVAAGAKNVVKLLGGQRMQDRKALAEAQAQLQESSQKLDLLRLALELLLERLPPTHSLRSRVTQELWMAMLGNPQPLGTLVKPIALTGTLQVRLLGCKDLLVAVPGRSPMAVLAGSPSESWLRTRSRQQRGGGELASEVLAVLKVDNRVVGQTGWGLVAEKSWDQSFIISLDRARELEIGVHWRDWRQLCGVAFLKLEDFLDNACHQLSLSLVPQGRLFAQVTFCEPVIERRPRLQRQRCIFSKRRGRDFMRASQMNLSMAAWGRLVMSLLPPCSSPNTASPPKGRPSTAVCGTPSAASPSNFLPMKTLSKEDTKPPPKPPRLYLQEPAPGTPCTKRPHMDPRPAVVPALAALSTRKPPRLQDFRCLAVLGRGHFGKVLLVQYKGTGKYYAIKALKKQEVLGRDEIDSLYCEKRILETVGRTGHPFLLSLLACLQTSSHACFVTEFLPGGDLMAQIHEDVFPEPQACFYLACVVLGLQFLHEKRIIYRDLKLDNLLLDAQGFLKIADFGLCKEGIGFGDRTSTFCGTPEFLAPEVLTQEAYTRAVDWWGLGVLLYEMLVGECPFPGDTEEEVFECIVSADVPCPHFLSVQGLELIQKLLQKSPEKRLGAGERDAEEIKVQPFFRTTNWQALLARTVQPPFVPTLCGPADLRYFEGEFTSLPPTLTPPVSQSSLTARQQAAFRDFDFVSEQFLES
chain 2: MNHLNVLAKALYDNVAESPDELSFRKGDIMTVLEQDTQGLDGWWLCSLHGRQGIVPGNRLKILVGMYDKKPAGPGPGPPATPAQPQPGLHAPAPPASQYTPMLPNTYQPQPDSVYLVPTPSKAQQGLYQVPGPSPQFQSPPAKQTSTFSKQTPHHPFPSPATDLYQVPPGPGGPAQDIYQVPPSAGMGHDIYQVPPSMDTRSWEGTKPPAKVVVPTRVGQGYVYEAAQPEQDEYDIPRHLLAPGPQDIYDVPPVRGLLPSQYGQEVYDTPPMAVKGPNGRDPLLEVYDVPPSVEKGLPPSNHHAVYDVPPSVSKDVPDGPLLREETYDVPPAFAKAKPFDPARTPLVLAAPPPDSPPAEDVYDVPPPAPDLYDVPPGLRRPGPGTLYDVPRERVLPPEVADGGVVDSGVYAVPPPAEREAPAEGKRLSASSTGSTRSSQSASSLEVAGPGREPLELEVAVEALARLQQGVSATVAHLLDLAGSAGATGSWRSPSEPQEPLVQDLQAAVAAVQSAVHELLEFARSAVGNAAHTSDRALHAKLSRQLQKMEDVHQTLVAHGQALDAGRGGSGATLEDLDRLVACSRAVPEDAKQLASFLHGNASLLFRRTKATAPGPEGGGTLHPNPTDKTSSIQSRPLPSPPKFTSQDSPDGQYENSEGGWMEDYDYVHLQGKEEFEKTQKELLEKGSITRQGKSQLELQQLKQFERLEQEVSRPIDHDLANWTPAQPLAPGRTGGLGPSDRQLLLFYLEQCEANLTTLTNAVDAFFTAVATNQPPKIFVAHSKFVILSAHKLVFIGDTLSRQAKAADVRSQVTHYSNLLCDLLRGIVATTKAAALQYPSPSAAQDMVERVKELGHSTQQFRRVLGQLAAA

Variants of: B1
Assay: co-immunoprecipitation (IP anti-Flag sepharose, IB anti-p130Cas); MDA-MB-231 cells, transient transfection; parent: 1

ratio to parent | Variant
0.8 | chain 1 K577E
0.2 | chain 1 P501A, chain 1 K503S, chain 1 P504A

From paper PMC6360386 (2018)
